± gives the standard deviation of the averaged measurements.
Test: total protein half-life in vivo (active degradation + dilution); higher = more stable protein
[1] = E. coli NCM3722 delta-clpP delta-lon delta-hslV, growth: N-lim chemostat, doubling time 6 h
[2] = E. coli NCM3722 delta-clpP, growth: N-lim chemostat, doubling time 6 h
[3] = E. coli NCM3722 delta-hslV, growth: N-lim chemostat, doubling time 6 h
[4] = E. coli NCM3722 delta-lon, growth: N-lim chemostat, doubling time 6 h
[5] = E. coli NCM3722 delta-smpB, growth: N-lim chemostat, doubling time 6 h
[6] = wild type E. coli NCM3722, growth: C-lim chemostat, doubling time 3 h
[7] = wild type E. coli NCM3722, growth: C-lim chemostat, doubling time 6 h
[8] = wild type E. coli NCM3722, growth: C-lim chemostat, doubling time 12 h
[9] = wild type E. coli NCM3722, growth: N-lim chemostat, doubling time 12 h
[10] = wild type E. coli NCM3722, growth: P-lim chemostat, doubling time 6 h
[11] = wild type E. coli NCM3722, growth: P-lim chemostat, doubling time 12 h
[12] = wild type E. coli NCM3722, growth: N-lim chemostat, doubling time 6 h

Sequence	total protein half-life in vivo [1]	total protein half-life in vivo [2]	total protein half-life in vivo [3]	total protein half-life in vivo [4]	total protein half-life in vivo [5]	total protein half-life in vivo [6]	total protein half-life in vivo [7]	total protein half-life in vivo [8]	total protein half-life in vivo [9]	total protein half-life in vivo [10]	total protein half-life in vivo [11]	total protein half-life in vivo [12]
MMYHIPGVLSPQDVARFREQLEQAEWVDGRVTTGAQGAQVKNNQQVDTRSTLYAALQNEVLNAVNQHALFFAAALPRTLSTPLFNRYQNNETYGFHVDGAVRSHPQNGWMRTDLSATLFLSDPQSYDGGELVVNDTFGQHRVKLPAGDLVLYPSSSLHCVTPVTRGVRVASFMWIQSMIRDDKKRAMLFELDNNIQSLKSRYGESEEILSLLNLYHNLLREWSEI	4.14 ± 0.34 h	2.79 h	2.86 h	3.12 ± 0.055 h	2.31 ± 0.3 h	3 ± 0.17 h	4.856 ± 0.037 h	6.39 h	4.16 h	5.85 ± 0.63 h	11.4 ± 1.4 h	
MNAIWIAVAAVSLLGLAFGAILGYASRRFAVEDDPVVEKIDEILPQSQCGQCGYPGCRPYAEAISCNGEKINRCAPGGEAVMLKIAELLNVEPQPLDGEAQEITPARMVAVIDENNCIGCTKCIQACPVDAIVGATRAMHTVMSDLCTGCNLCVDPCPTHCISLQPVAETPDSWKWDLNTIPVRIIPVEHHA	2.26 ± 0.093 h	1.52 h			0.89 h		0.945 h				1.92 ± 0.49 h	
MNALLSNPFKERLRKGEVQIGLWLSSTTAYMAEIAATSGYDWLLIDGEHAPNTIQDLYHQLQAVAPYASQPVIRPVEGSKPLIKQVLDIGAQTLLIPMVDTAEQARQVVSATRYPPYGERGVGASVARAARWGRIENYMAQVNDSLCLLVQVESKTALDNLDEILDVEGIDGVFIGPADLSASLGYPDNAGHPEVQRIIETSIRRIRAAGKAAGFLAVAPDMAQQCLAWGANFVAVGVDTMLYSDALDQRLAMFKSGKNGPRIKGSY		2.69 ± 0.27 h			2.17 h	2.74 h	4.08 h	6.62 ± 0.94 h	3.25 h			
MNATAAQTKSLEWLNRLRANPKIPLIVAGSAAVAVMVALILWAKAPDYRTLFSNLSDQDGGAIVSQLTQMNIPYRFSEASGAIEVPADKVHELRLRLAQQGLPKGGAVGFELLDQEKFGISQFSEQVNYQRALEGELSRTIETIGPVKGARVHLAMPKPSLFVREQKSPSASVTVNLLPGRALDEGQISAIVHLVSSAVAGLPPGNVTLVDQGGHLLTQSNTSGRDLNDAQLKYASDVEGRIQRRIEAILSPIVGNGNIHAQVTAQLDFASKEQTEEQYRPNGDESHAALRSRQLNESEQSGSGYPGGVPGALSNQPAPANNAPISTPPANQNNRQQQASTTSNSGPRSTQRNETSNYEVDRTIRHTKMNVGDVQRLSVAVVVNYKTLPDGKPLPLSNEQMKQIEDLTREAMGFSEKRGDSLNVVNSPFNSSDESGGELPFWQQQAFIDQLLAAGRWLLVLLVAWLLWRKAVRPQLTRRAEAMKAVQQQAQAREEVEDAVEVRLSKDEQLQQRRANQRLGAEVMSQRIREMSDNDPRVVALVIRQWINNDHE	6.55 h	6.44 h				2.6 ± 0.24 h	4.73 ± 0.44 h	6.98 ± 0.67 h				
MNAVTEGRKVLLEIADLKVHFEIKDGKQWFWQPPKTLKAVDGVTLRLYEGETLGVVGESGCGKSTFARAIIGLVKATDGHVAWLGKELLGMKPDEWRAVRSDIQMIFQDPLASLNPRMTIGEIIAEPLRTYHPKMSRQEVRERVKAMMLKVGLLPNLINRYPHEFSGGQCQRIGIARALILEPKLIICDEPVSALDVSIQAQVVNLLQQLQREMGLSLIFIAHDLAVVKHISDRVLVMYLGHAVELGTYDEVYHNPLHPYTRALMSAVPIPDPDLEKNKTIQLLEGELPSPINPPSGCVFRTRCPIAGPECAKTRPVLEGSFRHSVSCLKVDPL	5.54 ± 0.093 h	5.82 ± 0.9 h	4.61 ± 0.15 h	4.14 ± 0.14 h	6.25 ± 1.4 h	2.65 ± 0.51 h	6.13 ± 1.6 h	10.3 ± 0.15 h	8.26 ± 0.85 h	5.69 ± 0.078 h	12.15 ± 0.025 h	5.03 ± 0.17 h
MNAWEVNFDGLVGLTHHYAGLSFGNEASTRHRFQVSNPRLAAKQGLLKMKALADAGFPQAVIPPHERPFIPVLRQLGFSGSDEQVLEKVARQAPHWLSSVSSASPMWVANAATIAPSADTLDGKVHLTVANLNNKFHRSLEAPVTESLLKAIFNDEEKFSVHSALPQVALLGDEGAANHNRLGGHYGEPGMQLFVYGREEGNDTRPSRYPARQTREASEAVARLNQVNPQQVIFAQQNPDVIDQGVFHNDVIAVSNRQVLFCHQQAFARQSQLLANLRARVNGFMAIEVPATQVSVSDTVSTYLFNSQLLSRDDGSMMLVLPQECREHAGVWGYLNELLAADNPISELKVFDLRESMANGGGPACLRLRVVLTEEERRAVNPAVMMNDTLFNALNDWVDRYYRDRLTAADLADPQLLREGREALDVLSQLLNLGSVYPFQREGGGNG	4.1 ± 0.25 h	2.42 ± 0.32 h	2.8 ± 0.29 h	2.88 ± 0.035 h	2.75 ± 0.14 h	3.06 ± 0.31 h	5.17 ± 0.51 h	8.64 ± 0.32 h	3.749 ± 0.0089 h	5.69 ± 0.31 h	9.79 ± 1.5 h	2.74 ± 0.35 h
MNAYELQALRHIFAMTIDECATWIAQTGDSESWRQWENGKCAIPDRVVEQLLAMRQQRKKHLHAIIEKINNRIGNNTMRFFPDLTAFQRVYPDGNFIDWKIYQSVAAELYAHDLERLC	4.85 h					2.05 h	3.14 ± 0.49 h	5.24 ± 0.46 h				
MNDAIPRPQAKTRKALTPLLEIRNLTKSYDGQHAVDDVSLTIYKGEIFALLGASGCGKSTLLRMLAGFEQPSAGQIMLDGVDLSQVPPYLRPINMMFQSYALFPHMTVEQNIAFGLKQDKLPKAEIASRVNEMLGLVHMQEFAKRKPHQLSGGQRQRVALARSLAKRPKLLLLDEPMGALDKKLRDRMQLEVVDILERVGVTCVMVTHDQEEAMTMAGRIAIMNRGKFVQIGEPEEIYEHPTTRYSAEFIGSVNVFEGVLKERQEDGLVLDSPGLVHPLKVDADASVVDNVPVHVALRPEKIMLCEEPPANGCNFAVGEVIHIAYLGDLSVYHVRLKSGQMISAQLQNAHRHRKGLPTWGDEVRLCWEVDSCVVLTV	6.49 ± 0.28 h	6.64 ± 0.65 h	5.74 ± 0.33 h	6.22 ± 0.67 h	5.84 ± 0.35 h	2.93 ± 0.054 h	5.92 ± 0.21 h	11.2 ± 0.37 h	11.5 ± 0.22 h	6.222 ± 0.037 h	11.8 ± 1.3 h	5.64 ± 0.26 h

Reference: the supplement of paper PMC11246515
